Data: PMC9311411, “A Morphing [4Fe‐3S‐nO]‐Cluster within a Carbon Monoxide Dehydrogenase Scaffold” (Angewandte Chemie (International Ed. in English), 2022)

Substrate: NO
Assay: reoxidation of reduced methyl viologen
Assay type: biochemical, Carboxydothermus hydrogenoformans
Conditions: 0-100 mM NH2OH; reduced methyl viologen as artificial electron donor; two-electron reduction to ammonia and water
Source text: reoxidation of reduced methyl viologen on CooS‐V Ch | hyperbolic dependency on the NH2OH concentration (Figure S2‐C)

B1: CooS‐V Ch (Carboxydothermus hydrogenoformans Z-2901) (protein)
chain: MATKTSIHPSVNELYQRLAEDQLSNCFDRFDPQEKIRCNYCELGVSCQLCSNGPCRINEKVGATLGVCGINADGMAMRYMLLRNVMGTSTYTYHAYEAYKTLKMTALGNTPFTITDKDKLYQMAKDLELNTEGKPEDVAVRLSDFLIWELYRDYDEPGKMIEVYAPLKRKEVWRKLGIYPAGPLHELKDAAASCLTNVDGDYVSLATKGLRLGLSCIYGAQIGLELVQDILFGTGMPHEMDVDLGIFDADYINIVFNGHEPFVGVALILAAKEAVNQDKAKAAGAKSLRIYGSIESGQEVVQRFQKDEVFRGLTGNWLTIEPMLATGAVDVLAMDMNCSPPNLGPLAEKYGATLVSVSRLVRFPGIHHFLDYKPSEVREIAQKIIDIAVDSFKNKRHGKITPKIPANIQKAITGFTPEAILKALGGSINPLIEVIKAGKIKGAVGLINCTTLKNGPQDYVTVNLAKELIKRDILILSGGCGNHALEVAGLCNLDAINLAGPGLSEVCRNLNIPPVLSFGTCTDTGRISLVVTALANALNVDTADLPVAVTAPMYMEQKATIDALFALAYGLYTHVAPDPPVMGAPNLVKLLTRDLPSITGGRIAVGSDPVKVADDILAHINDRRAKLGI
notes: full length, 629 residues; homodimer, apparent 118 kDa; [2Fe-2S], [4Fe-4S] and Fe/S/O hybrid cluster, no Ni
B1 was tested, and the Km was 7.6 ± 2.0 mM and the kcat was 0.13 s–1.
